We go through 18 molecules from EP4585616A1, “ANTIBODY CAPABLE OF SPECIFICALLY BINDING TO ROR1, […] THEREOF, AND PREPARATION METHOD THEREFOR AND USE THEREOF” (Hefei Institutes of Physical Science, Chinese Academy of …, priority 2022, dated 2024).

Experiment [1] concerns the target T1, Extracellular domain of human ROR1 protein (ROR1-ECD) (human, UniProt Q01973 30-403).
T1 construct: Expressed in HEK293T cells; also called human ROR1-ECD; purified human ROR1 protein extracellular segment
The experiment can be described thus: ELISA, plate-coated ROR1-ECD. A general note: In an ELISA, binding on a coated surface is turned into a signal by an enzyme label.

In experiment [2] the target is T2, human ROR1 on the surface of tumor cells (human, UniProt Q01973 30-937).
T2 construct: whole, on cells; also called ROR1 on the cell surface; tumor cell ROR1
T2 sequence (Q01973 30-937): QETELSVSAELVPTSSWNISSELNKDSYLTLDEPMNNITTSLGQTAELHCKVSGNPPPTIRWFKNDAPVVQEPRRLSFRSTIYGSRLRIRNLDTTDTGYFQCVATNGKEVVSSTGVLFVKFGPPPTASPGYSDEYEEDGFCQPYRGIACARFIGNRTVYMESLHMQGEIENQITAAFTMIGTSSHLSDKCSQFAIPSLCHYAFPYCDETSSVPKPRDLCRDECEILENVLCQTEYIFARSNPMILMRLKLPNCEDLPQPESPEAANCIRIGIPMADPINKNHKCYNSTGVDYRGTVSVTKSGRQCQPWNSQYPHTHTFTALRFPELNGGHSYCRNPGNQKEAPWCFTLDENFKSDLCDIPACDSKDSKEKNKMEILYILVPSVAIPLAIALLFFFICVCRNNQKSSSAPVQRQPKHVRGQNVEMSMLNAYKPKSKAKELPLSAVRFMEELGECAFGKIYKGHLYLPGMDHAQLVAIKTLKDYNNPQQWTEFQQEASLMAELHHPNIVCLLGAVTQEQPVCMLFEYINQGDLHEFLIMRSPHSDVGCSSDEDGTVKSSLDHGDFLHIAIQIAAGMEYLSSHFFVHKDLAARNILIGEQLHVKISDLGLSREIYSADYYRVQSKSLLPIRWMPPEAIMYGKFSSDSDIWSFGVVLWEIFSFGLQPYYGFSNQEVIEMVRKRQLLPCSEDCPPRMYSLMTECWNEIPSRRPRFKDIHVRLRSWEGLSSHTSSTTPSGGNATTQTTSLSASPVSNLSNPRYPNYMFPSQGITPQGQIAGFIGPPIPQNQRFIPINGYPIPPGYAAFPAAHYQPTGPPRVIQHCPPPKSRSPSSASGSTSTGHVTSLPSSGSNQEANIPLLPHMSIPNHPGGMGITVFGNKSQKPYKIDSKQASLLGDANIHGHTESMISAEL
The experiment can be described thus: FACS, MDA-MB-231 cells. On the technique in general: Flow cytometry measures light scatter and fluorescence of single cells or particles in a stream.

T1 sequence (Q01973 other isoform, or with tags, fused parts or gaps): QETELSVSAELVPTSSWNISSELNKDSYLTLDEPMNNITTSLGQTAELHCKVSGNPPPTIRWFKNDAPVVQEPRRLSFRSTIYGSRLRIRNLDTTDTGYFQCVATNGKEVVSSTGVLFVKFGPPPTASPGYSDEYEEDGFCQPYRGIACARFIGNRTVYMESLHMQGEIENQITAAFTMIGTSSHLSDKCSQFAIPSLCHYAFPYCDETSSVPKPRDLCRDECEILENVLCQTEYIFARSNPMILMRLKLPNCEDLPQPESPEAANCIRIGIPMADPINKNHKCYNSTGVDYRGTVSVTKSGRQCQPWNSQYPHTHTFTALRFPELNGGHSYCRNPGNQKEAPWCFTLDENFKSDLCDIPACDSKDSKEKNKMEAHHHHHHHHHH

B1: Hu005-46 (antibody, V domains shown)
VH: EVQLVESGGGLVKPGGSLRLSCAASGFTFNSYAMSWVRQTPGKRLEWVATISDAGSYTYYPDNEKGRFTISRDNAKNSLYLQMNSLRAEDTAIYYCVRGGYYYNLYAMDYWGQGTLVTVSS
VL: DIVLTQSPDSLAVSLGERATINCKASQSVSFPGTSLMHWYQQKPGQQPKLLIYRASNLEAGVPDRFSGSGSRTDFTLTISSLQAEDVAVYYCQQSREYPWTFGGGTKVEIK
notes: Humanized
For B1, the binding result in experiment [1] and in experiment [2] was “binds” in each case.

B2: Hu005-40 (antibody, V domains shown)
VH: EVQLVESGGGLVKPGGSLRLSCAASGFTFNSYAMSWVRQTPEKGLEWVATISDAGSYTYYPDNEKGRFTISRDNAKNNLYLQMNSLRAEDTAIYYCVRGGYYYNLYAMDYWGQGTLVTVSS
VL: DIVLTQSPDSLAVSLGERATINCKASQSVSFPGTSLMHWYQQKPGQQPKLLIYRASNLEAGVPDRFSGSGSRTDFTLTISSLQAEDVAVYYCQQSREYPWTFGGGTKVEIK
notes: Humanized
On to B2, for which the binding result in experiment [1] and in experiment [2] was “binds” throughout.

B3: Hu005-41 (antibody, V domains shown)
VH: EVQLVESGGGLVKPGGSLRLSCAASGFTFNSYAMSWVRQTPGKRLEWVATISDAGSYTYYPDNEKGRFTISRDNAKNNLYLQMNSLRAEDTAIYYCVRGGYYYNLYAMDYWGQGTLVTVSS
VL: DIVLTQSPDSLAVSLGERATINCKASQSVSFPGTSLMHWYQQKPGQQPKLLIYRASNLEAGVPDRFSGSGSRTDFTLTISSLQAEDVAVYYCQQSREYPWTFGGGTKVEIK
notes: Humanized
For the molecule B3, the binding result in experiment [1] and in experiment [2] was “binds” in each case.

B4: Hu005-35 (antibody, V domains shown)
VH: EVQLVESGGGLVKPGGSLRLSCAASGFTFNSYAMSWVRQTPEKRLEWVATISDAGSYTYYPDNEKGRFTISRDNAKNNLYLQMNSLRAEDTAIYYCVRGGYYYNLYAMDYWGQGTLVTVSS
VL: DIVLTQSPDSLAVSLGERATINCKASQSVSFPGTSLMHWYQQKPGQQPKLLIYRASNLEAGVPDRFSGSGSRTDFTLTISSLQAEDVAVYYCQQSREYPWTFGGGTKVEIK
notes: Humanized
For the molecule B4, the binding result in experiment [1] and in experiment [2] was “binds” in each case.

B5: Hu005-43 (antibody, V domains shown)
VH: EVQLVESGGGLVKPGGSLRLSCAASGFTFNSYAMSWVRQTPGKGLEWVATISDAGSYTYYPDNEKGRFTISRDNAKNNLYLQMNSLRAEDTAIYYCVRGGYYYNLYAMDYWGQGTLVTVSS
VL: DIVLTQSPDSLAVSLGERATINCKASQSVSFPGTSLMHWYQQKPGQQPKLLIYRASNLEAGVPDRFSGSGSRTDFTLTISSLQAEDVAVYYCQQSREYPWTFGGGTKVEIK
notes: Humanized
Turning to B5, the binding result in experiment [1] and in experiment [2] was “binds” each time.

B6: Hu005-44 (antibody, V domains shown)
VH: EVQLVESGGGLVKPGGSLRLSCAASGFTFNSYAMSWVRQTPGKGLEWVATISDAGSYTYYPDNEKGRFTISRDNAKNSLYLQMNSLRAEDTAIYYCVRGGYYYNLYAMDYWGQGTLVTVSS
VL: DIVLTQSPDSLAVSLGERATINCKASQSVSFPGTSLMHWYQQKPGQQPKLLIYRASNLEAGVPDRFSGSGSRTDFTLTISSLQAEDVAVYYCQQSREYPWTFGGGTKVEIK
notes: Humanized
In the case of B6, the binding result in experiment [1] and in experiment [2] was “binds” in each case.

B7: Hu005-42 (antibody, V domains shown)
VH: EVQLVESGGGLVKPGGSLRLSCAASGFTFNSYAMSWVRQTPEKRLEWVATISDAGSYTYYPDNEKGRFTISRDNAKNSLYLQMNSLRAEDTAIYYCVRGGYYYNLYAMDYWGQGTLVTVSS
VL: DIVLTQSPDSLAVSLGERATINCKASQSVSFPGTSLMHWYQQKPGQQPKLLIYRASNLEAGVPDRFSGSGSRTDFTLTISSLQAEDVAVYYCQQSREYPWTFGGGTKVEIK
notes: Humanized
On to B7, for which the binding result in experiment [1] and in experiment [2] was “binds” each time.

B8: Hu001-05 (antibody, V domains shown)
VH: QVQLVQSGAEVKKPGASVKVSCKASGYTFTDYNLHWVRQAPGQGLEWMGYINPNHDATSYNQKFQGKVTMTVDTSTSTVYMELSSLRSEDTAVYYCARRVRTGTGLDDWGQGTTVTVSS
VL: DVVMTQSPLSLPVTLGQPASISCRSSHNIVHTNANTYLEWYQQRPGQSPRLLIYKVSNRFSGVPDRFSGSGSGTDFTLKISRVEAEDVGVYYCFQGSRFPYTFGGGTKVEIK
notes: Humanized; also called Hu001-5
As to B8, the binding result in experiment [1] and in experiment [2] was “binds” each time.

B9: Hu001-06 (antibody, V domains shown)
VH: QVQLVQSGAEVKKPGASVKVSCKASGYTFTDYNLHWVRQAPGQGLEWMGYINPNHDATSYNQKFQGKVTMTVDTSTSTVYMELSSLRSEDTAVYYCARRVRTGTGLDDWGQGTTVTVSS
VL: DVVMTQSPLSLPVTLGQPASISCRSSHNIVHTNANTYLEWYQQRPGQSPKLLIYKVSNRFSGVPDRFSGSGSGTDFTLKISRVEAEDVGVYYCFQGSRFPYTFGGGTKVEIK
notes: Humanized; also called Hu001-6
As to B9, the binding result in experiment [1] and in experiment [2] was “binds” throughout.

B10: Hu001-3-MMAE (antibody, human IgG1, DAR about 4.15, V domains shown)
VH: QVQLVQSGAEVKKPGASVKVSCKASGYTFTDYNLHWVRQAPGQGLEWMGYINPNHDATSYNQKFQGRVTMTRDTSTSTVYMELSSLRSEDTAVYYCARRVRTGTGLDDWGQGTTVTVSS
VL: DVVMTQSPLSLPVTLGQPASISCRSSHNIVHTNANTYLEWYQQRPGQSPKLLIYKVSNRFSGVPDRFSGSGSGTDFTLKISRVEAEDVGVYYCFQGSRFPYTFGGGTKVEIK
modifications: vcMMAE on cysteines after TCEP reduction, positions not given
notes: Antibody-drug conjugate of Hu001-3 (human IgG1, Kappa) with vcMMAE
With B10, the binding result in experiment [1] and in experiment [2] was “binds” each time.

B11: Hu001-15 (antibody, V domains shown)
VH: QVQLVQSGAEVKKPGASVKVSCKASGYTFTDYNLHWVKQAPGQGLEWIGYINPNHDATSYNQKFQGKATLTVDTSTSTAYMELSSLTSEDTAVYYCARRVRTGTGLDDWGQGTTVTVSS
VL: DVVMTQSPLSLPVTLGQPASISCRSSHNIVHTNANTYLEWYQQRPGQSPKLLIYKVSNRFSGVPDRFSGSGSGTDFTLKISRVEAEDVGVYYCFQGSRFPYTFGGGTKVEIK
notes: Humanized
Take B11: the binding result in experiment [1] and in experiment [2] was “binds” in each case.

B12: Hu001-12 (antibody, V domains shown)
VH: QVQLVQSGAEVKKPGASVKVSCKASGYTFTDYNLHWVKQAPGQGLEWIGYINPNHDATSYNQKFQGKATLTVDTSTSTVYMELSSLRSEDTAVYYCARRVRTGTGLDDWGQGTTVTVSS
VL: DVVMTQSPLSLPVTLGQPASISCRSSHNIVHTNANTYLEWYQQRPGQSPKLLIYKVSNRFSGVPDRFSGSGSGTDFTLKISRVEAEDVGVYYCFQGSRFPYTFGGGTKVEIK
notes: Humanized
Regarding B12, the binding result in experiment [1] and in experiment [2] was “binds” throughout.

B13: Hu001-02 (antibody, V domains shown)
VH: QVQLVQSGAEVKKPGASVKVSCKASGYTFTDYNLHWVRQAPGQGLEWMGYINPNHDATSYNQKFQGRVTMTRDTSTSTVYMELSSLRSEDTAVYYCARRVRTGTGLDDWGQGTTVTVSS
VL: DVVMTQSPLSLPVTLGQPASISCRSSHNIVHTNANTYLEWYQQRPGQSPRLLIYKVSNRFSGVPDRFSGSGSGTDFTLKISRVEAEDVGVYYCFQGSRFPYTFGGGTKVEIK
notes: Humanized; also called Hu001-2
As for B13, the binding result in experiment [1] and in experiment [2] was “binds” throughout.

B14: Hu001-14 (antibody, V domains shown)
VH: QVQLVQSGAEVKKPGASVKVSCKASGYTFTDYNLHWVKQAPGQGLEWIGYINPNHDATSYNQKFQGKATLTVDTSTSTAYMELSSLTSEDTAVYYCARRVRTGTGLDDWGQGTTVTVSS
VL: DVVMTQSPLSLPVTLGQPASISCRSSHNIVHTNANTYLEWYQQRPGQSPRLLIYKVSNRFSGVPDRFSGSGSGTDFTLKISRVEAEDVGVYYCFQGSRFPYTFGGGTKVEIK
notes: Humanized
As for B14, the binding result in experiment [1] and in experiment [2] was “binds” in each case.

B15: Hu001-08 (antibody, V domains shown)
VH: QVQLVQSGAEVKKPGASVKVSCKASGYTFTDYNLHWVKQAPGQGLEWIGYINPNHDATSYNQKFQGKVTMTVDTSTSTVYMELSSLRSEDTAVYYCARRVRTGTGLDDWGQGTTVTVSS
VL: DVVMTQSPLSLPVTLGQPASISCRSSHNIVHTNANTYLEWYQQRPGQSPRLLIYKVSNRFSGVPDRFSGSGSGTDFTLKISRVEAEDVGVYYCFQGSRFPYTFGGGTKVEIK
notes: Humanized; also called Hu001-8
For B15, the binding result in experiment [1] and in experiment [2] was “binds” each time.

B16: Hu001-2-MMAE (antibody, human IgG1, DAR about 4.15, V domains shown)
VH: QVQLVQSGAEVKKPGASVKVSCKASGYTFTDYNLHWVRQAPGQGLEWMGYINPNHDATSYNQKFQGRVTMTRDTSTSTVYMELSSLRSEDTAVYYCARRVRTGTGLDDWGQGTTVTVSS
VL: DVVMTQSPLSLPVTLGQPASISCRSSHNIVHTNANTYLEWYQQRPGQSPRLLIYKVSNRFSGVPDRFSGSGSGTDFTLKISRVEAEDVGVYYCFQGSRFPYTFGGGTKVEIK
modifications: vcMMAE on cysteines after TCEP reduction, positions not given
notes: Antibody-drug conjugate of Hu001-2 (human IgG1, Kappa) with vcMMAE
Take B16: the binding result in experiment [1] and in experiment [2] was “binds” throughout.

B17: Hu001-03 (antibody, V domains shown)
VH: QVQLVQSGAEVKKPGASVKVSCKASGYTFTDYNLHWVRQAPGQGLEWMGYINPNHDATSYNQKFQGRVTMTRDTSTSTVYMELSSLRSEDTAVYYCARRVRTGTGLDDWGQGTTVTVSS
VL: DVVMTQSPLSLPVTLGQPASISCRSSHNIVHTNANTYLEWYQQRPGQSPKLLIYKVSNRFSGVPDRFSGSGSGTDFTLKISRVEAEDVGVYYCFQGSRFPYTFGGGTKVEIK
notes: Humanized; also called Hu001-3
For the molecule B17, the binding result in experiment [1] and in experiment [2] was “binds” in each case.

B18: Hu001-11 (antibody, V domains shown)
VH: QVQLVQSGAEVKKPGASVKVSCKASGYTFTDYNLHWVKQAPGQGLEWIGYINPNHDATSYNQKFQGKATLTVDTSTSTVYMELSSLRSEDTAVYYCARRVRTGTGLDDWGQGTTVTVSS
VL: DVVMTQSPLSLPVTLGQPASISCRSSHNIVHTNANTYLEWYQQRPGQSPRLLIYKVSNRFSGVPDRFSGSGSGTDFTLKISRVEAEDVGVYYCFQGSRFPYTFGGGTKVEIK
notes: Humanized
Regarding B18, the binding result in experiment [1] and in experiment [2] was “binds” throughout.
